Measurements published in US9296810 (Novartis, dated 2016).

target: Human Serum Albumin (HSA) (human, UniProt P02768 25-609); test: yeast display selection
Sequence (P02768 25-609 limits assumed): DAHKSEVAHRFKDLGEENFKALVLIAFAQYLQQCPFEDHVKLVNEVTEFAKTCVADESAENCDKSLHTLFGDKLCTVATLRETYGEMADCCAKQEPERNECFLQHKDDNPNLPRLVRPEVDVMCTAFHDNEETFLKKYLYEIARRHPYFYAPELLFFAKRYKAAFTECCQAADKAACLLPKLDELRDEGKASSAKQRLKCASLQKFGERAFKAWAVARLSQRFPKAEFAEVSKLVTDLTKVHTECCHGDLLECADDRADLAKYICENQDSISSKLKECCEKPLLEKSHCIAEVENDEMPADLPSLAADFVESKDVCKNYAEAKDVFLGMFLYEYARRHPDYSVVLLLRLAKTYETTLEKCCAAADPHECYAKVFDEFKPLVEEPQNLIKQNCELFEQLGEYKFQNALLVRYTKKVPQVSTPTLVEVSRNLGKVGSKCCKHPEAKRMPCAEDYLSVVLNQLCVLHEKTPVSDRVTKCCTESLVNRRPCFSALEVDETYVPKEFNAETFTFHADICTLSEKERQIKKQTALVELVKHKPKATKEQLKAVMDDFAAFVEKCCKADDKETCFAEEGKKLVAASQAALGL

Row | Binder | binding result
1 | SEQ ID NO 16 (designed binder) VSDVPRDLEVVAATPTSLLISWDAPAVTVRYYRITYGITGKEKSFVEFTVPGSKSTATIRDVKKGKDYTITVYAVTGRGDSPASSKPISINYRAET | binds
2 | SEQ ID NO 28 (designed binder) VSDVPRDLEVVAATPTSLLISWDAPAVTVRYYRITYGKVKAKAPLVEFTVPGSKSTATISSLKTGKDYTITVYAVTGRGDSPASSKPISINYRYEG | binds
3 | SEQ ID NO 40 (designed binder) VSDVPRDLEVVAATPTSLLISWDAPAVTVRYYRITYGRPGHNSKVHEFTVPGSKSTATIDGAKKGHDYTITVYAVTGRGDSPASSKPISINYIMEH | binds
4 | SEQ ID NO 32 (designed binder) VSDVPRDLEVVAATPTSLLISWDAPAVTVRYYRITYGMISGDKRRREFTVPGSKSTATIDRLKLGRDYTITVYAVTGRGDSPASSKPISINYRLES | binds
5 | SEQ ID NO 27 (designed binder) VSDVPRDLEVVAATPTSLLISWDAPAVTVRYYRITYGLTKRKSLISEFTVPGSKSTATIIGLKAGKDYTITVYAVTGRGDSPASSKPISINYKTEN | binds
6 | SEQ ID NO 33 (designed binder) VSDVPRDLEVVAATPTSLLISWDAPAVTVRYYRITYGVMHDKHPKKEFTVPGSKSTATISGLKRGRDYTITVYAVTGRGDSPASSKPISINYKSEA | binds
7 | SEQ ID NO 35 (designed binder) VSDVPRDLEVVAATPTSLLISWDAPAVTVRYYRITYGKNGRHNLDHEFTVPGSKSTATISGLKRGVDYTITVYAVTGRGDSPASSKPISINYHNEN | binds
8 | SEQ ID NO 24 (designed binder) VSDVPRDLEVVAATPTSLLISWDAPAVTVRYYRITYGEASKNHRQHEFTVPGSKSTATISRIKRGTDYTITVYAVTGRGDSPASSKPISINYSPES | binds
9 | SEQ ID NO 31 (designed binder) VSDVPRDLEVVAATPTSLLISWDAPAVTVRYYRITYGEVHGHHTAHEFTVPGSKSTATIVRLKRGKDYTITVYAVTGRGDSPASSKPISINYCPER | binds
10 | SEQ ID NO 18 (designed binder) VSDVPRDLEVVAATPTSLLISWDAPAVTVRYYRITYGHTAKTRHHHEFTVPGSKSTATICKSRRGSDYTITVYAVTGRGDSPASSKPISINYQAET | binds
11 | SEQ ID NO 17 (designed binder) VSDVPRDLEVVAATPTSLLISWDAPAVTVRYYRITYGQRVGKTKVHEFTVPGSKSTATIRGLKRGKDYTITVYAVTGRGDSPASSKPISINYFPET | binds
12 | SEQ ID NO 25 (designed binder) VSDVPRDLEVVAATPTSLLISWDAPAVTVRYYRITYGEKPRKYRSSEFTVPGSKSTATIRHSKHGKDYTITVYAVTGRGDSPASSKPISINYMREI | binds
13 | SEQ ID NO 36 (designed binder) VSDVPRDLEVVAATPTSLLISWDAPAVTVRYYRITYGNIVAANALPEFTVPGSKSTATITGLMSGIDYTITVYAVTGRGDSPASSKPISINYSTEY | binds
14 | SEQ ID NO 37 (designed binder) VSDVPRDLEVVAATPTSLLISWDAPAVTVRYYRITYGKLSQPTKRREFTVPGSKSTATISRLKPGLDYTITVYAVTGRGDSPASSKPISINYHYEL | binds
15 | SEQ ID NO 41 (designed binder) VSNIPKDLEVVAATPTSLLISWDAPAVTVRYYRITYGQTMNGQSNVEFTVPGSKSTATISPSKLGLDYTITVYAVTGRGDSPASSKPISINYLSET | binds
16 | SEQ ID NO 38 (designed binder) VSDVPRDLEVVAATPTSLLISWDAPAVTVRYYRITYGKSSHNSAAKEFTVPGSKSTATITRLKSGTDYTITVYAVTGRGDSPASSKPISINYKPEY | binds
17 | SEQ ID NO 21 (designed binder) VSDVPRDLEVVAATPTSLLISWDAPAVTVRYYRITYGDSRHHPRAHEFTVPGSKSTATITGCKRGHDYTITVYAVTGRGDSPASSKPISINYRYEH | binds
18 | SEQ ID NO 26 (designed binder) VSDVPRDLEVVAATPTSLLISWDAPAVTVRYYRITYGKTARKYHMQEFTVPGSKSTATISGIKRGTDYTITVYAVTGRGDSPASSKPISINYNSEH | binds
19 | SEQ ID NO 23 (designed binder) VSDVPRDLEVVAATPTSLLISWDAPAVTVRYYRITYGVMGDTKKVKEFTVPGSKSTATIERIKLGRDYTITVYAVTGRGDSPASSKPISINYRKEH | binds
20 | SEQ ID NO 30 (designed binder) VSDVPRDLEVVAATPTSLLISWDAPAVTVRYYRITYGIPAKKHHTHEFTVPGSKSTATITGLKSGVDYTITVYAVTGRGDSPASSKPISINYRTET | binds
21 | SEQ ID NO 22 (designed binder) VSDVPRDLEVVAATPTSLLISWDAPAVTVRYYRITYGKSHGHRQKHEFTVPGSKSTATISDYRQGGDYTITVYAVTGRGDSPASSKPISINYKGEL | binds
22 | SEQ ID NO 34 (designed binder) VSDVPRDLEVVAATPTSLLITWDAPAVTVRYYRITYGVAGKTKPRSEFTVPGSKSTATIPHLKLGHDYTITVYAVTGRGDSPASSKPISINYRAEH | binds
23 | SEQ ID NO 19 (designed binder) VSDVPRDLEVVAATPTSLLISWDAPAVTVRYYRITYGYGAANRRAHEFTVPGSKSTATISGLKRGRDYTITVYAVTGRGDSPASSKPISINYRHEL | binds
24 | SEQ ID NO 29 (designed binder) VSDVPRDLEVVAATPTSLLISWDAPAVTVRYYRITYGDRAKNTRIKEFTVPGSKSTATISGLKRGRDYTITVYAVTGRGDSPASSKPISINYRLEG | binds
25 | SEQ ID NO 39 (designed binder) VSDVPRDLEVVAATPTSLLISWDAPAVTVRYYRITYGKKHKHTTVREFTVPGSKSTATIAGKSLGGDYTITVYAVTGRGDSPASSKPISINYTSET | binds
